The text below walks through data of patent US6638503.

One data set has as its target Human fibrinogen (UniProt P02671).
The target in a further data set is Bovine serum albumin (UniProt P02769).
In data set [1] the test system is bovine serum albumin, haemoglobin, fibrinogen and thrombin.

Human fibrinogen, sequence (P02671 20-629, chain 1 of 3): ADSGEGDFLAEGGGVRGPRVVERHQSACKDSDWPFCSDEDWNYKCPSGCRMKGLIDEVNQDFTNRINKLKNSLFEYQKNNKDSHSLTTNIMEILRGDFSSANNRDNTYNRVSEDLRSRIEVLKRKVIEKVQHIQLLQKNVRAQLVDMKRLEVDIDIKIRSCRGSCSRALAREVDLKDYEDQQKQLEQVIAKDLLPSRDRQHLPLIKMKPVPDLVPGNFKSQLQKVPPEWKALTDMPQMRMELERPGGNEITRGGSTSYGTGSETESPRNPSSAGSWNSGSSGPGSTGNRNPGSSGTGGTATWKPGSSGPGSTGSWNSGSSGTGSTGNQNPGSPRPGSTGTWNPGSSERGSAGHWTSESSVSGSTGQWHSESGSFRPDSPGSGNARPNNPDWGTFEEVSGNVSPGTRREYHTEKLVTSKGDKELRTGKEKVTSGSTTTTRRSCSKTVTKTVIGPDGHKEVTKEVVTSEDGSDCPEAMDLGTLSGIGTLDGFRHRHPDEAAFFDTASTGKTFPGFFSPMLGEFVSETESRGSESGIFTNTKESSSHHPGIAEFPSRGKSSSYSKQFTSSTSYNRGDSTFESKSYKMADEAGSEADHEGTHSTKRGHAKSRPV
Human fibrinogen, sequence (chain, as listed by the source, chain 2 of 3): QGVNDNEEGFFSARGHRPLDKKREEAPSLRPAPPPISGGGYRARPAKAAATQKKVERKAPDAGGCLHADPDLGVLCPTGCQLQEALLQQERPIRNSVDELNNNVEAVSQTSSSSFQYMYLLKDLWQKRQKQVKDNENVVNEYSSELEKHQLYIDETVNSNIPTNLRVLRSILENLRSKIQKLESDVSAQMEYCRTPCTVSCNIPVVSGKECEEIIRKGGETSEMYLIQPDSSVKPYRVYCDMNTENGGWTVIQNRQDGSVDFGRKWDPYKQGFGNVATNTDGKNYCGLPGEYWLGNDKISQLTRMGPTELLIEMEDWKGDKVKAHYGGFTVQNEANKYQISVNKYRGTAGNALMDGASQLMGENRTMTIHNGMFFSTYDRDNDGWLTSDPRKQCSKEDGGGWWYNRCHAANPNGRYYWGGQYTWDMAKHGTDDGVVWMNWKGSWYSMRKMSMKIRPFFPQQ
Human fibrinogen, sequence (chain, as listed by the source, chain 3 of 3): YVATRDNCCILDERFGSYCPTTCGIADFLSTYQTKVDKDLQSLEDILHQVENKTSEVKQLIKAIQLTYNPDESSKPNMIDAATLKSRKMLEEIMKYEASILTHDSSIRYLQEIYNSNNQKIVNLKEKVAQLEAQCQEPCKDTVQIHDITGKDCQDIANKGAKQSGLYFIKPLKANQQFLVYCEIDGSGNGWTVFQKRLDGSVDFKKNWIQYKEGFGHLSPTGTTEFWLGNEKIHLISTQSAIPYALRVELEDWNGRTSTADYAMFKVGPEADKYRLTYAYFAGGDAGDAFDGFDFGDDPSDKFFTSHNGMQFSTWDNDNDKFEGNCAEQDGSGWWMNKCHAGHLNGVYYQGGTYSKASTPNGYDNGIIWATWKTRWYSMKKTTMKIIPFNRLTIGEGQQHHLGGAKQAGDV
Bovine serum albumin, sequence (P02769 25-607): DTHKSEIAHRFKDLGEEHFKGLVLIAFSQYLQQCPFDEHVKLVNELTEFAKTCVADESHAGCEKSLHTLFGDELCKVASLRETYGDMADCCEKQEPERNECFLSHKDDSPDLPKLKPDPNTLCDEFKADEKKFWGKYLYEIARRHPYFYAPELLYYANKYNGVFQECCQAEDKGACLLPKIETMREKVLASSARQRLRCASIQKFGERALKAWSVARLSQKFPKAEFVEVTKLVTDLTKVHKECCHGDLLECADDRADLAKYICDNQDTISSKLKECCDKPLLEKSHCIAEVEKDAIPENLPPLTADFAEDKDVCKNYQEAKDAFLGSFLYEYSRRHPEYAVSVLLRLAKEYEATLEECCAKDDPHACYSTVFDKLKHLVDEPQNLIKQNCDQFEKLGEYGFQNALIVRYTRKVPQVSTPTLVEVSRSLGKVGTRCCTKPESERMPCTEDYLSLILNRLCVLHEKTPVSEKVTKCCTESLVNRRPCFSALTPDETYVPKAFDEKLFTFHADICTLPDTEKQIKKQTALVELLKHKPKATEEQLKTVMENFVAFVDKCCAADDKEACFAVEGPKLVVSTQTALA
plasminogen, sequence (chain, as listed by the source): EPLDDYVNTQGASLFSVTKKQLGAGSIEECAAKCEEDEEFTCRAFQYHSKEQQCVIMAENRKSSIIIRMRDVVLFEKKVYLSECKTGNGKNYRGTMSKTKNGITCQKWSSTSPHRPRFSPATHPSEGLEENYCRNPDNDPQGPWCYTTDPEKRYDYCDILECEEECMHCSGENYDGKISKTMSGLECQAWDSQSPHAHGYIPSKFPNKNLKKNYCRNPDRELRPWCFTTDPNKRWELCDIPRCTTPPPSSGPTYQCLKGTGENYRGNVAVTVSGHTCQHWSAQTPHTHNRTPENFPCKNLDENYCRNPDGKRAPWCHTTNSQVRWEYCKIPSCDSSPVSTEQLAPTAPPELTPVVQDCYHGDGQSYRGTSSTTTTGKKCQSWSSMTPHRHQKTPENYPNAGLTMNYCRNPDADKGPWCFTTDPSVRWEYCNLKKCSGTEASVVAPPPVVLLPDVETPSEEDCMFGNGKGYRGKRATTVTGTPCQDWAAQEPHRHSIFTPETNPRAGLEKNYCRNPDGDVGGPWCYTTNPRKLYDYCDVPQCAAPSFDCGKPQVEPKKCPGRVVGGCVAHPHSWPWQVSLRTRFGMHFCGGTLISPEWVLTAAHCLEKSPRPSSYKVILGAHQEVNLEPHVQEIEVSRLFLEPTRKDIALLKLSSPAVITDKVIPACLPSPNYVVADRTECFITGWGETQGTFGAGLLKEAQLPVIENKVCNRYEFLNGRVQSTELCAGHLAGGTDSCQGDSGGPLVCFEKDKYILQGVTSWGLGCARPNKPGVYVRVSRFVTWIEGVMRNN

With “actinokinase (fibrinolytic enzyme from Streptomyces megasporus SD5)”, in the data set on plasminogen, the “amidolytic activity with and without added plasminogen” value is “Amydolytic activity exhibited by the enzyme was same in presence and absence of plasminogen”. For the same substance, the Relative activity (%) with Human fibrinogen turned out to be 12%; in the data set with Bovine serum albumin it was 32%; with Fibrin, 100%; in the data set on Thrombin, 27%; in the data set with Hemoglobin, 8%. In addition, the fibrinolytic activity with Fibrin was 1.0×10^3 µmole/ tyrosine mg^-1 protein min^-1. The “proteolytic activity, % of the control” value in data set [1] is recorded as “varied from 5-30% of the control”. In addition, in the data set with casein, the caseinolytic activity is 1.0×10^2 µmole/tyrosine mg^-1 protein min^-1.
